We go through 116 sequences from the supplement of paper PMC10724198.

± gives the standard deviation of the averaged measurements.
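Also: PSI is a weighted mean of sequencing reads over stability bins, variants kept only with over 10 reads, mCherry proximal and sfGFP distal, peptide attached via GGGS linker.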

In the data set the test system is Saccharomyces cerevisiae. The data set can be described thus: protein stability index of tFT-peptide fusion (C-terminal peptide) (PSI (0-1 scale)); higher = more stable (slower turnover). The following applies: genetic background: wild type; temperature: 30 C.
Consider KKIYEKRKKLRK, for which the protein stability index came to 0.756 ± 0.057.
Sequence KKKDRENIKNKI gave a protein stability index of 0.7151 ± 0.0068.
Then KKKEENGGRGDE, with 0.7008 ± 0.0041; and KKKKDQQQELKN, with 0.657 ± 0.032.
Then KKKKEKKETKKK, with 0.67 ± 0.028; and KKKKEKKYKERY, with 0.721 ± 0.13.
For the sequence KKKKGKKRRTRK, the protein stability index stood at 0.72 ± 0.041.
Then KKKKKIKKKHNK, with 0.6859 ± 0.001; and KKKKKKGKGAKT, with 0.617 ± 0.011; and KKKKKKKKKKTR, with 0.6407 ± 0.0016.
Then KKKKKKKKTNKK, with 0.762 ± 0.084.
Then KKKKKKKRNKHN, with 0.706 ± 0.048.
For KKKKKKNKKTKN, the protein stability index came to 0.711 ± 0.045.
Then KKKKKKQQKKRK, with 0.686 ± 0.039; and KKKKKKTKKKNK, with 0.719 ± 0.016; and KKKKKKVRYIRI, with 0.671 ± 0.046.
KKKKKQKDTKHR gave a protein stability index of 0.682 ± 0.018.
KKKKKQKKKKKK registered a protein stability index of 0.643 ± 0.048.
Then KKKKKQTKGKNK, with 0.688 ± 0.12; and KKKKKRKKKKEK, with 0.683 ± 0.044; and KKKKKTKKKAEK, with 0.701 ± 0.022.
The value for KKKKPKKKTQKS was 0.713 ± 0.04; that for KKKKQNKRKRKT was 0.635 ± 0.0086; that for KKKKQRKQEKKI was 0.642 ± 0.008.
Sequence KKKKREKSKHRK had a protein stability index of 0.714 ± 0.022.
Then KKKKRIQEKEII, with 0.63 ± 0.015; and KKKKRKIPKKKK, with 0.635 ± 0.11; and KKKKTEIKRNKT, with 0.689 ± 0.026.
Then KKKKTKKKTNSI, with 0.727 ± 0.0076; and KKKKTKYIKRKK, with 0.701 ± 0.18.
The value for KKKKTQKKKTKQ was 0.668 ± 0.019.
KKKKTVHKKNRR registered a protein stability index of 0.699 ± 0.022.
Then KKKLKYKGIRTN, with 0.679 ± 0.049; and KKKNNRITVFKV, with 0.636 ± 0.067.
Then KKKQKYRREEKE, with 0.724 ± 0.051; and KKKQPKKNQNPT, with 0.767 ± 0.075; and KKKRKKSKKKKK, with 0.642 ± 0.1.
Then KKKRRFTQEMDK, with 0.684 ± 0.17.
KKKTKNGKEKRR yielded a protein stability index of 0.7 ± 0.019.
Then KKLRNKKGKRYA, with 0.645 ± 0.086.
The value for KKLSSRTQGLHG was 0.746 ± 0.059; that for KKLSTYSVIEKS was 0.601 ± 0.042.
Then KKMKEKKKRNHA, with 0.712 ± 0.035.
In turn, KKNKAKRKKYIV registered a protein stability index of 0.616 ± 0.03.
The value for KKNKHKEKIKKK was 0.723 ± 0.069.
Then KKQKKHKKEKEK, with 0.638 ± 0.019; and KKQKKKKSTKRN, with 0.722 ± 0.038; and KKQRKRTKRKRK, with 0.693 ± 0.048.
Then KKREEVKKNIKI, with 0.681 ± 0.019.
With KKRERNDKRGCQ, the protein stability index came to 0.652 ± 0.024.
The value for KKRKKKKQTKRK was 0.691 ± 0.022; that for KKRKKKRTEPQP was 0.6421 ± 0.00099.
Consider KKRKNNKIRKKK, for which the protein stability index is 0.723 ± 0.0053.
Sequence KKRTTKEKKQHK registered a protein stability index of 0.693 ± 0.033.
The value for KKSQKSKNKTHN was 0.571 ± 0.0066.
In the case of KKTEGATEERKR, the protein stability index was 0.692 ± 0.015.
Then KKTIENEGRNIL, with 0.645 ± 0.0069.
Then KKTIEQNNLTIV, with 0.7091 ± 0.002.
Then KLGWSVTRAEVN, with 0.687 ± 0.017.
Sequence KLKITSKDKIIK displayed a protein stability index of 0.671 ± 0.016.
Then KLLRPMVLPQRT, with 0.615 ± 0.02; and KLSIKNLFDLLY, with 0.691 ± 0.033; and KLTVPTKTIVHT, with 0.651 ± 0.03.
Sequence KLVGASVYECQR had a protein stability index of 0.672 ± 0.012.
Then KMGTEEGRVWVG, with 0.651 ± 0.054; and KMVTRKKNEEKD, with 0.6328 ± 0.0029; and KNEKEKKTKMRN, with 0.754 ± 0.14.
With KNGLERFTSNRS, the protein stability index was 0.641 ± 0.051.
The value for KNKQSKNKSKRK was 0.712 ± 0.038.
On to KNKTRSEISKNS, for which the protein stability index was 0.6974 ± 0.0017.
KNNSKKRKLKPR had a protein stability index of 0.718 ± 0.14.
Then KNRKKIKIVCVK, with 0.559 ± 0.026.
The value for KNRKTQSNQTKI was 0.719 ± 0.025.
KNSNIDKMIRKE yielded a protein stability index of 0.6973 ± 0.0012.
KNTRIKKMKRRT returned a protein stability index of 0.827 ± 0.097.
The value for KNTVRKCNGRMH was 0.57 ± 0.063.
Then KPRKEKRGLVNS, with 0.664 ± 0.039; and KPSHNEARKKGG, with 0.681 ± 0.014.
The value for KQGKKKDEWTRG was 0.6945 ± 0.0023.
In the case of KQKIKKRIKKTI, the protein stability index came to 0.6958 ± 0.0029.
The value for KQKIKTDKYKKD was 0.656 ± 0.051; that for KQKLEGTIIREL was 0.674 ± 0.024; that for KQRENMCRCARE was 0.712 ± 0.074.
The value for KQRTRKYLNSRN was 0.654 ± 0.12; that for KRDNKNKDKQKK was 0.7 ± 0.024.
Then KREKKNTYIKKV, with 0.671 ± 0.04.
Turning to KREQKPHPKLKL, the protein stability index is 0.5682 ± 0.0021.
For KRGGRGEKAEGK, the protein stability index is 0.655 ± 0.024.
Then KRGRISKKRDSS, with 0.759 ± 0.017; and KRGSREQQRYWK, with 0.659 ± 0.027.
Then KRIGLGEERQKR, with 0.57 ± 0.078; and KRIIRSYHFLGC, with 0.698 ± 0.047; and KRIKTEKRRSKK, with 0.748 ± 0.046.
The value for KRILKEKRRKKN was 0.658 ± 0.036; that for KRITLNADIIIK was 0.629 ± 0.11.
Take KRKHQSPLLNTR: the protein stability index amounted to 0.705 ± 0.021.
The value for KRKQDKEAEKKS was 0.704 ± 0.019.
Then KRKREKKEKADA, with 0.66 ± 0.043.
The value for KRLCTYRMIGSL was 0.521 ± 0.0089.
Regarding KRLNRVHRSTKV, the protein stability index worked out at 0.687 ± 0.021.
The value for KRNSLSLIPQII was 0.655 ± 0.071; that for KRPVTPTFGRLQ was 0.645 ± 0.067; that for KRQKENRKNKKI was 0.704 ± 0.019.
Then KRRRWFILSGPL, with 0.685 ± 0.008; and KRSGEGREKIRK, with 0.703 ± 0.028.
The value for KRSIVSTDKDRY was 0.603 ± 0.045; that for KRVIVRLASYAS was 0.55909 ± 2.1e-05; that for KSGVWLWGGGGG was 0.724 ± 0.032.
The sequence KSKKERREKKKA displayed a protein stability index of 0.665 ± 0.031.
The value for KSKKNKTEKTKE was 0.665 ± 0.027; that for KSKKRERDETKK was 0.645 ± 0.033; that for KSKQKNKTQVKN was 0.66 ± 0.023.
The value for KSPSTRATTHTY was 0.678 ± 0.028; that for KSRLYVDVLMQR was 0.659 ± 0.077; that for KSRTRNNVSRVG was 0.6703 ± 0.0062.
Then KSVVRLPHLPLE, with 0.695 ± 0.02.
